According to the RNAGym collection of RNA variant scans (doi:10.1073/pnas.2313332121):

B1: TPR t1 (parent)
chain: GACCAAUCUGCCCUCAGAGCUCGAGAACAUCUUCGGAUGCAGAGGAGGCAGGCUUCGGUGGCGCGAUAGCGCCAACGUCCUCAACCUCCAAUGCAUCCCACCACAUGAUGAUGCCUGAAGAGCCUUGGUUUUUUG

Variants of: B1
Assay: polymerase ribozyme fitness, log enrichment relative to wild type (log ratio); higher = more active; in vitro selection for triplet polymerase activity
Method in brief: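 Mutant libraries for each subunit of a heterodimeric triplet polymerase ribozyme were made by PCR and then transcribed. Each library underwent one round of in vitro selection in triplicate: annealing with a biotinylated primer, the partner subunit and triplets, frozen incubation at −7 °C, gel excision of extended constructs, streptavidin-bead capture and RT-PCR. Input and output libraries were Illumina-sequenced, and only genotypes with ≥10 input reads and ≥1 read per output were kept. Fitness is the logarithm, base 2, of genotype enrichment over wild-type enrichment, computed from inverse-variance-weighted replicate averages.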

Variant | polymerase ribozyme fitness (log ratio)
C49U G61C | -1.88
C49U G61A | -0.0564
G51A G61C | -3.7
G51A G61U | -2.94
A50C C115A | -1.39
A50G G57C G61U C88G | -3.3
C49U G63A U92G A121G | -3.84
A50G G60C C94U | -4.35
A50U G57A U130C | -1.53
A50C C70U U116G G117A | -4.23
A50C U55G G58C U81A C124A | 1.51
A50U U81A C85G | -0.884
A50U G61U U126G | -2.73
A50G G63U | -1.73
G51A C56U G63C A84U C99U A121U | -6.23
G51C C56U C115U U131A | -4.93
A50U C70U | -1.67
C49U U59G | -1.24
G51A G57C U112G | -1.7
G51C G60C A75U | -2.9
A50U G52C G58C C73U C88U | -4.53
G51A C86U C94G G120C | -6.29
G51A A103G | -6.42
C49U G77U | 0.0294

Variant | polymerase ribozyme fitness (log ratio)
C49U G77A | 0.352
A50U G122A | -1.23
A50U U54C U106A G117A | -1.12
A50C C76U C88U | -1.73
A50G G60C C94U U129G | -3.05
A50C C56G A105U G120C | -2.11
C49U G93A C101U G127C | -2.96
A50C U92A | -3.05
G51A G71C U112C | -2.08
A50U G60C C123A G127C U132C | -0.878
A50U G60A C123G | 1.09
C49U U126A | -1.95
A50U A83C C89G | -5.74
A50C C72G U87G G120C U131A | 0.442
A50U A83G | -0.122
G51A G52A U54C | -4.49
A50G C104U | -0.208
A50G C104A | -1.49
A50C G110U | -1.99
A50U C88U | -1.71
A50U U78C | -2.19
C49U U96A U106A | -1.67
C49U G113C | -3.45
A50U C72G C79U U112A | -3.66

Variant | polymerase ribozyme fitness (log ratio)
A50G C53A C70G | -2.47
A50G G61C | -3.07
G51A C124A | -1.48
A50C G71U A121C | 0.855
A50U G61U C94A G110U | -4.5
A50U G63A U106C | -3.09
A50U U109A | -5.95
A50U G69U C80G C98U G113A | -3.31
A50U U54A G63C U112A | -2.51
A50U C98U G107A C115A | -5.98
A50C G71U U87A | -1.95
A50C C82A | -0.499
A50U C56G | -1.76
A50U A83U U133A | -0.994
A50U C56U C73G C88U | -3.49
C49U U54C G117U G128A | -5.68
G51A C99U C124A | -5.8
A50U C73U U87A | -0.904
G51C G127U | -5.2
G51A U54G C72G C80A C82G | -4.89
A50U C62U A83U U133A | -1.52
G51C G69U | -2.95
A50U C88U A118U | -0.957
A50U C82U | -1.15

Variant | polymerase ribozyme fitness (log ratio)
A50C G52U | -2.09
A50U U109A A111C G120U A121G | -6.95
A50C G63U U81A U129A | -2.04
C49U G93A C97U U116C | -3.84
A50C A111C | 0.0167
G51A A83G G120U C123G G128U | -2.51
C49U G61A C79U C97G | -5.31
A50G C70U A111U | -4.72
A50G C70U C72G | -3.42
A50C C62U C115U | -2.55
A50U C64U A111G U125A | -1.48
G51A A90G G113C | -5.54
C49U U92G A121G | -1.61
A50U G58A G63U G113C U129G | -7.01
G51A G57U | -1.5
A50G G63A U112A G122A | -1.39
A50C C53G C86U C88U G107U A121U | -5.3
A50G C72G | -0.204
C49U U92A | -3.99
A50C G69U U125A | 0.0264
A50G C53G G60U C72U C101A | -3.8
G51C C73G C114A | -6.6
A50C G60C | -1.73
A50G G69U | 0.675

Variant | polymerase ribozyme fitness (log ratio)
G51A C62A A75C U131A | -5.36
G51A U87C U131A | -2.41
A50U C86U G93U U112C | -1.3
G51A G61A U125A | -2.21
C49U G63U | -2
C49U G127A | -1.64
A50C G69U | -0.0602
A50C A75G A95C C123U | 0.24
A50C A111C C115U U129A | -6.02
A50U C62U U109A A111C G120U A121G | -7.17
A50U U81A | -0.662
A50U U81C | -1.83
A50G A84C C114G | -2.83
A50C C101A | -1.83
A50G C53U U129C U130G | -0.774
A50C C53G C73A U126G | -2.99
A50C G63U U81G G128C | -4.28
A50C C94U C123U | 1.49
A50C C70A C82G A84C | -2.37
A50C C88A | -1.03
G51A A74G | -1.96
A50C C73G | -1.15
G51C G110C | -6.54
A50C C72U | -0.602

Variant | polymerase ribozyme fitness (log ratio)
A50C C72G | -0.555
A50C G69A G120A G127A | -3.94
G51A G71U G77U | -3.39
A50U C124G | -0.185
A50C C53U A84G | -0.439
C49U U129A | -1.47
G51A C64G C101G G113A C123A | -6.84
G51A G71A G93A U129C | -5.9
A50G C62A | -0.949
A50U G69A C123G U131G | -4.01
C49U G77U G113U G122U C124A | -3.66
G51A G77C U116C A118C | -5.43
A50G U78C | 0.0914
G51C C53A | -4.19
C49U G61U U78G | -0.458
A50U C85G C89A G120U | -3.42
C49U G107A | -3.94
C49U G71A G117C | -6.24
G51A G69U C88U G93A U109G U133C | -4.55
G51C C53G C94G | -5.44
A50U C56A A66U G69U C80G C104G C115G C123U U130C | -8.27
A50C A121U | 2.16
A50U G61C G122U | -3.51
A50U U87G | -1.44

Variant | polymerase ribozyme fitness (log ratio)
A50U G65A U78G G120A U126A U129G U130A | -7.26
C49U U55A C62U C99U A111U | -7.19
G51A G52A G61U C101U | -3.85
G51A G63U C80A U96G | -5.76
A50C C72U G93U U112G | -2.29
A50U G63C C86G U87A | -3.52
A50G C53G G61A C64U U116A G117A | -4.58
G51C C101U | -3.94
A50U C64U A105C A118U | -4.51
A50U C62U U106A | -1.01
C49U G77A C123G | 1.03
A50G C62U C82A A121U | 1.97
G51C G135U | -4.93
C49U U130C | 0.0143
C49U U130A | -0.901
A50G C53G G60U C72U C101A G117A | -4.06
C49U U131A | -0.481
A50U C64A A100C A111G | -6.26
C49U U78G U96A G113A C115A | -5.23
A50G C76G | -0.226
A50G C76U | -0.383
G51A A74G U131A | -1.77
C49U G113U C114U | -2.07
